Results taken from publication doi:10.1101/2023.06.21.545551 (2023).

Biological target: MYC(303–351) (human)
Assay: NMR; printed fit value 1205 uM in parentheses

B1: MYC(1–88) (domain or fragment)
chain: MPLNVSFTNRNYDLDYDSVQPYFYCDEEENFYQQQQQSELQPPAPSEDIWKKFELLPTPPLSPSRRSGLCSPSYVAVTPFSLRGDNDG
  Kd: > 1 mM
